Reference: patent US20070010658A1 (published 2007)
Numbering of substitutions follows the chain as printed. Each block holds one binder with its values, some of them ahead of it.

Key:
[1] = target: T1, TNF alpha (UniProt P01375 77-233, limits assumed); assay: SPR; off rate of the trimer against monomeric TN3-2-B
T1 construct: also called tumour necrosis factor; TNFSF2
Method: (§1) Surface plasmon resonance (SPR) binding analysis was performed on a BIAcore 3000 instrument (BiaCore, Sweden). TNF alpha capture antibody (AHC3712, Biosource International) to be immobilized was dissolved in 10 mM NaAcetate pH 5.0 and then immobilized on a CM5 BiaCore sensor chip using the Amine Coupling kit (BiaCore, Sweden).
(§2) Binding analysis was performed at a flow rate of 5 μl/min. Before loading of the protein sample, the chip was equilibrated in 10 mM Tris pH 8.0, 150 mM NaCl, 2 mM CaCl₂, 50 μM EDTA and 0.005% Surfactant P20. TNF alpha was dissolved in 10 mM Tris pH 8.0, 150 mM NaCl, 2 mM CaCl₂ at 10 μg/mL and 10 μL was injected. Aliquots (20 μl) of TNF alpha binders in monomeric or the trimeric format were injected using the KINJECT option. Five min of dissociation were allowed before the chip was regenerated with 10 mM Glycine pH 2.5. Binding of TNF alpha binders was tested at six different protein concentrations, ranging from 1 to 200 nM. Binding data were evaluated using the BIAevaluation program version 3.2 (BiaCore).

[2] = target: T1, TNF alpha; assay: SPR; fold increase in affinity of the trimer over monomeric TN3-2-B
Method: as §1, §2

[3] = target: T1, TNF alpha; assay: SPR (BIAcore 3000), TNF alpha captured by immobilised antibody AHC3712, binder injected
Method: as §1, §2

[4] = target: T1, TNF alpha; assay: SPR; fold increase in affinity of the trimer over monomeric TN3-2-D
Method: as §1, §2

[5] = target: T1, TNF alpha; assay: SPR; fold increase in affinity of the trimer over monomeric TN3-2-C
Method: as §1, §2

T1 sequence (P01375 77-233 limits assumed): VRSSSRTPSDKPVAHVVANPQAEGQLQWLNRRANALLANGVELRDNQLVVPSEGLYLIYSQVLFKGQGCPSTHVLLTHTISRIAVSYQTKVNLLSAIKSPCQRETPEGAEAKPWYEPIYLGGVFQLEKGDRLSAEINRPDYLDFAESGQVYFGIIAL

B1: TN-2-B (trimeric) (designed binder)
chain: EPPTQKPKKIVNAKKDVVNTKMFEELKSRLDTLAQEVALLKEQQALQTVCLKGTKVHMKCFLAFTQTKTFHEASEDCISRGGTLSTPQTGSENDALYEYLRQSVGNEAEIWLGLNKVRSRYFWMDMTGTRIAYKNWETEITAQPDPTNNENCAVLSGAANGKWFGKRCRDQLPYICQFGIV
notes: also called trimeric version of TN3-2-B
fold improvement of off value [1]: > 1000 fold
Fold increase [2]: 304 fold
Kd [3]: ~0.24 nM
koff [3]: 0.000736 s⁻¹
kon [3]: 3.02e+06 M⁻¹ s⁻¹

B4: TN3-2-B (monomeric) (designed binder)
chain: ALQTVCLKGTKVHMKCFLAFTQTKTFHEASEDCISRGGTLSTPQTGSENDALYEYLRQSVGNEAEIWLGLNKVRSRYFWMDMTGTRIAYKNWETEITAQPDPTNNENCAVLSGAANGKWFGKRCRDQLPYICQFGIV
notes: Purified monomer from the E. coli periplasm (pBAD) for SPR
Kd [3]: 73 nM
koff [3]: 0.923 s⁻¹
kon [3]: 1.4e+07 M⁻¹ s⁻¹

B5: TN3-2-D (monomeric) (designed binder)
chain: B4 chain with M80I, T103N, N105R
notes: as for B4
Kd [3]: 50 nM
koff [3]: 0.0185 s⁻¹
kon [3]: 364000 M⁻¹ s⁻¹

B6: TN3-2-C (monomeric) (designed binder)
chain: B4 chain with M80V, N105R, G121D
notes: as for B4
Kd [3]: 150 nM
koff [3]: 0.022 s⁻¹
kon [3]: 134000 M⁻¹ s⁻¹

The remaining binders from weak to strong by Kd [3], led by results:

Fold increase [4]: 12 fold
Kd [3]: 4.1 nM
koff [3]: 0.00207 s⁻¹
kon [3]: 506000 M⁻¹ s⁻¹
B2: TN-2-D (trimeric) (designed binder)
chain: B1 chain with M124I, T147N, N149R
notes: also called trimeric version of TN3-2-D

Fold increase [5]: 37 fold
Kd [3]: 4 nM
koff [3]: 0.00353 s⁻¹
kon [3]: 884000 M⁻¹ s⁻¹
B3: TN-2-C (trimeric) (designed binder)
chain: B1 chain with M124V, N149R, G165D
notes: also called trimeric version of TN3-2-C
